Measurements from article PMC7246340, “A Novel Anti-Kv10.1 Nanobody Fused to Single-Chain TRAIL Enhances Apoptosis Induction in Cancer Cells” (Frontiers in Pharmacology, 2020).
Positions count from the first letter of the chain named.

B1: h1x antigen (E3-S5-pore segment fused to the C-terminal coiled coil domain of Kv10.1 and to thioredoxin) (domain or fragment, human)
chain: IGDYEIFDEDTKTIRNNSWLYQLAMDIGTPYQFNGSGSGKWEGGPSKNSVYISSLYFTMTSLTSVGFGNIAPSTDIEK
notes: Kv10.1 voltage-gated potassium channel, E3 segment (extracellular linker between S5 and S6 transmembrane segments, extending to the pore loop); numbers count on: Homo sapiens Kv10.1, isoform 1 (UniProt O95259-2); Kv10.1 voltage-gated potassium channel, C-terminal tetramerizing coiled-coil (C-terminal assembly domain); The coiled coil was added with the aim to induce tetramerization; the …
B2: G10 (VHH)
VHH: EVQLVESGGGLVQPGGSLRLSCTAAGRTFSTYILAWFRQAPGEERKFVAGITGNGETGYSNSVKGRFTIARDNAKNTVFLQMNNLKPEDTAVYYCAAHSRSTYYYKGPDLYDYGQGTQVTVSS
B3: anti-Kv10.1 nanobody VHH-C4 (VHH)
VHH: RLLLVQSGGGLVQAGGSLRLSCAASGRTFSNYAMYWFRQTPGKDREFVASISYSGTFTDYAGSVKGRFTISRDNAKNTLYLQMNSLRPEDTAVYYCSLDRHYWGPGTQVTVSS
notes: Short CDR3 (six residues); His tag comes from the phage display vector; The preparation used for SPR is not described; source: E. coli TG1TR, culture supernatants (ELISA)
B4: anti-Kv10.1 nanobody VHH-D9 (VHH)
VHH: B3 VHH with R1Q, L2V, L3Q, T78R, R87K, H101L, P105Q
notes: a model in PDB format is also in the Supplementary Information; Short CDR3 (six residues); His tag comes from the phage display vector; The preparation used for SPR is not described; source: E. coli TG1TR, culture supernatants (ELISA)
B5: anti-Kv10.1 nanobody F5 (VHH)
VHH: QVQLVQSGGGLVQAGGSLRLSCAASGRTFENYIMAWFRQAPGEERKFVAAITGNGGTGYADSVKGRFTISRDNAKNTVLLQMNSLKPEDTAVYYCAAHSRSSYYYKGPDLYDYWGQGTQVTVSS
notes: From a phage display library of a llama immunised with h1x; His tag comes from the phage display vector; source: E. coli TG1TR, culture supernatants (ELISA)
B6: anti-Kv10.1 nanobody G1 (VHH)
VHH: VQLVEVWGRIGAKRGGSLRLSCTAAGRTFSSYILAWFRQAPGEERKFVAGITGNGETGYSNSVKGRFTISRDNAKNTVLLQMNNLKPEDTAVYYCAAHSRSIYYYRGPDLYDYWGQGTQVTVSS
notes: as for B5
B7: E12 (VHH)
VHH: EVQLVESGGGLVQAGGSLRLSCTASGRTFSSYIFAWFRQAPGEERKFVAGITGNGGTGYSNSVKGRFTISRDNAKNTVLLQMNNLKPDDTAVYYCAAHSRSSYYYRGPDLYDYWGQGTQVTVSS
B8: anti-Kv10.1 nanobody F6 (VHH)
VHH: B7 VHH with E1Q, E6Q, S30G, F34L, A40T, N61D, D88E, R106K
notes: as for B5
B9: anti-Kv10.1 nanobody G4 (VHH)
VHH: B5 VHH with L18R, A23T, E30S, N31S, M34L, A35G, K106R
notes: as for B5
B10: anti-Kv10.1 nanobody A12 (VHH)
VHH: B7 VHH with E1R, V2C, Q3K, V5Q, S25A, F34L, G56E, D88E, S102T
notes: as for B5

Assays:
VHH-D9-scTRAIL = biological target: T1, VHH-D9-scTRAIL (llama (Lama glama) | ); assay: ELISA; plates coated with 500 ng h1x or h2x, blocked with 3% BSA; Ab-scTRAIL constructs (CHO-K1 supernatants, not further purified) incubated 2 h at different concentrations; detected with the anti-TRAIL conjugate of the Quantikine TRAIL ELISA kit; apparent affinities; settings: one partner purified
T1 construct: nanobody D9, as the VHH of m4 without its His tag; TRAIL (Tumor Necrosis Factor-Related Apoptosis-Inducing Ligand) fragment, first of three in single-chain TRAIL; short peptide linker between TRAIL fragments; TRAIL fragment, second of three in single-chain TRAIL; TRAIL fragment, third of three in single-chain TRAIL; a linker between VHH and scTRAIL is not described; Vector tags were eliminated by …

[1] = biological target: B1
[2] = biological target: B1; assay: SPR; recombinant antigen h1x immobilised on the chip; serial dilution of nanobody as analyte (D9 3.12 nM to 200 nM, C4 25 nM to 400 nM); 1:1 Langmuir model; settings: both partners purified
[3] = biological target: B1; assay: ELISA; plates coated overnight with 500 ng h1x in TBS, blocked with 2% BSA; VHHs (E. coli culture supernatants) incubated 2 h at different concentrations; detected by mouse anti-His antibody and peroxidase-conjugated anti-mouse; apparent affinities; settings: one partner purified
[4] = biological target: B1; assay: as above; settings: one partner purified; remark: listed apart in the source

Row | Binder | Kd [3] [nM] | further results
1 | B1 |  | Kd (VHH-D9-scTRAIL): 0.029 nM
2 | B2 |  | binding result [1]: binds
3 | B3 | 87 | Kd [2]: 1800 nM; Kd [4]: 81 nM
4 | B4 | 11 | Kd [2]: 78 nM
5 | B5 | 470 | 
6 | B6 | 431 | 
7 | B7 |  | binding result [1]: binds
8 | B8 | 177 | 
9 | B9 | 943 | 
10 | B10 | 343 | 
